Data: patent US20230174623A1

Molecular target: collagen within the matrix fraction of excised B16F10 tumors
Experiment: depletion of AF647-LAIR fluorescence from solution by the B16F10 tumor matrix fraction, at steady state

Row | decrease in solution concentration (LAIR depleted from the bath) [%] | uptake into the tumor matrix (LAIR binding sites of a tumor) [nmol] | Substance
1 | 20 | – | AF647-labeled LAIR
2 | – | 0.2 | AF647-labeled LAIR (receptor)
